Biological target: wild-type human uPAR (human) (UniProt Q03405)
Test: cell-based or functional assay

wild-type human uPAR (human), sequence (Q03405 23-305): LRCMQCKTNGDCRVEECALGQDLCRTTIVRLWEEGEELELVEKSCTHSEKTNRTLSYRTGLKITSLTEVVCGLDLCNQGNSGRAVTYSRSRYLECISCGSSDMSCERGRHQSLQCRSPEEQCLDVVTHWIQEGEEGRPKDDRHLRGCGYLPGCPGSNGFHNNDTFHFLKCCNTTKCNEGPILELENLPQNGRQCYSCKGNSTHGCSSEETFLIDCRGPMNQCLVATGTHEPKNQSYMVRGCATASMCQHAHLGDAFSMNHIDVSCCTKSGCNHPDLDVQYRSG

| % max inhibition (pro-uPA pre-treat.) | % max inhibition (veh. pre-treat.) | IC50 (pro-uPA pre-treat.) | Substance |
| --- | --- | --- | --- |
| 100% | 100% | 800 nM | Somatomedin B domain of VN (from UniProt P04004 20-63) (ligand) |
| 21% | 65% |  | R2 (antibody) |

— patent US20140161803A1, “CONSTITUTIVELY ACTIVE UPAR VARIANTS AND THEIR USE FOR THE GENERATION AND ISOLATION OF INHIBITORY ANTIBODIES” (IFOM Fondazione Istituo FIRC di Oncologia Molecolare, priority 2011, published 2014)
